Reference: patent US20120128689A1 (GlaxoSmithKline, published 2012)
Numbering of substitutions follows the chain as printed.

B1: A5M20 (antibody, human IgG1, kappa, V domains shown)
VH: QVQLVQSGAEVKKPGSSVKVSCKASGYTFTSYGITWVRQAPGQGLEWMGENYPRSGNTYYNEKFKGRVTITADKSTSTAYMELSSLRSEDTAVYYCARAEFISTVVAPYYYALDYWGQGTLVTVSS
VL: DIVMTQSPDSLAVSLGERATINCKASKKVTIFGSISALHWYQQKPGQPPKLIYNLAKLESGVPDRFSGSGSGTDFTLTISSLQAEDVAVYYCLQNKEVPYTFGGGTKVEIKR
B2: A3M0 (antibody, human IgG1, kappa, V domains shown)
VH: B1 VH with A99S
VL: B1 VL with L55G
notes: human gamma1 and kappa constant regions; Tested as HEK supernatant and as purified antibody; also called A3M0 purified
B3: A5M0 (antibody, human IgG1, kappa, V domains shown)
VH: B1 VH
VL: B1 VL with L55G
B4: A5M21 (antibody, human IgG1, kappa, V domains shown)
VH: B1 VH
VL: B1 VL with F32Y, I35T, L58P
B5: A24AM4 (antibody, human IgG1, kappa, V domains shown)
VH: B1 VH with T58I
VL: B1 VL with I35T, L55G, L58P
B6: A24AM18 (antibody, human IgG1, kappa, V domains shown)
VH: B1 VH with T58I
VL: B1 VL with I35T, L58P
B7: A5M12 (antibody, human IgG1, V domains shown)
VH: B1 VH
VL: DIVMTQSPDSLAVSLGERATINCKASKKVTIYGSTSALHWYQQKPGQPPKLIYNGAKPESGVPDRFSGSGSGTDFTLTISSLQAEDVAVYYCLQNKEVPYTFGGGTKVEIK
B8: A3M18 (antibody, human IgG1, kappa, V domains shown)
VH: B1 VH with A99S
VL: B1 VL with I35T, L58P
B9: A6M20 (antibody, human IgG1, kappa, V domains shown)
VH: B1 VH with A99V
VL: B1 VL

Biological target: T1, human IL-23 (human, UniProt Q9NPF7 20-189; P29460 23-328)
T1 construct: Heterodimer of p19 and p40; also called hIL-23
T1 sequence 1: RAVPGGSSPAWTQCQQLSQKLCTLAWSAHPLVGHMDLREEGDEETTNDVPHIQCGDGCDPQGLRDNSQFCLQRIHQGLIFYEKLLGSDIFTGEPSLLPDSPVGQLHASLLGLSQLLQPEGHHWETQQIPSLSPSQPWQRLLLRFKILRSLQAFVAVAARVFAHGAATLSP
T1 sequence 2: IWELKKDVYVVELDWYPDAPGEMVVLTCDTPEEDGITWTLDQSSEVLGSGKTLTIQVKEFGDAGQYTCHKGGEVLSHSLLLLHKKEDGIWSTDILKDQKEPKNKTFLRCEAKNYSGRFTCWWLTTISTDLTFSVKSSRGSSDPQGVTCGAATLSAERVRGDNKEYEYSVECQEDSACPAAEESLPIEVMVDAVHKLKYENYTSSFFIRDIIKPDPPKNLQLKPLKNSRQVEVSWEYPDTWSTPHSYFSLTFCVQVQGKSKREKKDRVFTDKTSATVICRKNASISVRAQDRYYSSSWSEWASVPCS
Test: inhibition ELISA: antibody pre-incubated with a constant concentration of human IL-23, IL-23 bound to plate-coated human IL23R Fc chimera detected with biotinylated anti-human IL12, OD450
Description: Plates were coated with human IL23R Fc chimera at […] (phosphate buffered saline). 50 μl/well of this mixture was incubated overnight at 4° C. The plates were then washed three times with Phosphate Buffered Saline with 0.05% Tween 20 (PBST). Plates were blocked with 4% skim milk powder (Fluka BioChemika #70166) PBST 100 μl/well for a minimum of 1 hour at room temperature. The plates were then washed three times with Phosphate Buffered Saline+0.05% Tween 20 (PBST). Various concentrations of antibody were incubated in a separate plate with a constant concentration of IL-23 for 1 hour at room temperature. 50 ul of each mixture were transferred to the assay plate and incubated at RT for 1 hr. They were then washed three times with Phosphate Buffered Saline+0.05% Tween 20 (PBST). Bound IL23 was detected by anti human IL12 Biotin labelled Ab (R&D systems BAF219) diluted to 100 ng/ml in 4% skim milk powder (Fluka BioChemika #70166) PBST. 50 μl/well of the biotinylated antibody was added and incubated at RT for 1 hour. The plates were then washed three times with Phosphate Buffered Saline+0.05% Tween 20 (PBST). SA HRP (GE healthcare RPN4401) was diluted 1/4000 in 4% skim milk powder (Fluka BioChemika #70166) PBS, 50 μl/well was added to the plates. The plates were then washed three times with Phosphate Buffered Saline+0.05% Tween 20 (PBST). 50 ul/well of TMB was added to the plates and incubated at RT for 15 min. 25 μl/well of 3 MH₂SO₄ was added to the wells already containing TMB. The plate was read at OD450 nm using the SOftmaxPRO versamax plate reader.

Binder	IC50 (read off the curve)
B1	~0.2 nM
B2	~0.7 nM
B3	~0.3 nM
B4	~0.2 nM
B5	~0.2 nM
B6	~0.2 nM
B7	~0.2 nM

Biological target: T2, cyno IL-23 (cyno, limits assumed)
T2 construct: Heterodimer of p19 and p40; also called cynomolgus IL-23
T2 chain 1: T1 sequence 1 with T12A, H75R, L131P
T2 chain 2: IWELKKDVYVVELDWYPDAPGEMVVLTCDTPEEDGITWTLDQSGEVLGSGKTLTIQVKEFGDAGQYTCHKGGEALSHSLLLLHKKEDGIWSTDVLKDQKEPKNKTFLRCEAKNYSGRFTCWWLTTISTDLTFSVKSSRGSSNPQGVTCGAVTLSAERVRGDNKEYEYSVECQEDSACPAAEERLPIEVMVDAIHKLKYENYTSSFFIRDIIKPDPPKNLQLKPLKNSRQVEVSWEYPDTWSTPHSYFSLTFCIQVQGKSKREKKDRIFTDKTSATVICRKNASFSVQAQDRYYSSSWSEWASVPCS
Test: SPR Biacore, purified mAb captured on anti-human IgG, cyno IL-23 64-0.062 nM
Description: (§1) An anti-human IgG (Biacore BR-1008-39) was immobilised on a Biacore CM5 chip by primary amine coupling in accordance with the manufacturer's instructions. Anti IL-23 antibodies were captured on this surface and after a period of stabilisation, IL-23 (cyno or human) was passed over the antibody captured surface and a binding sensorgram was obtained. […] All runs were double referenced with a buffer injection over the captured antibody surface. Data was analysed using the 1:1 model using the software inherent to the Biacore T100. Analysis was carried out at 25° C. using HBS-EP buffer. Data presented in Tables 1 and 2 are on tissue culture supernatants of HEK cells transiently expressing the antibody of interest unless otherwise indicated.
(§2) This experiment was repeated with purified IL-23 antibodies and data shown in Table 3 was generated using 64, 16, 4, 1, 0.25 and 0.062 nM concentrations of human and cyno IL-23.

Binder	Kd	koff	kon
B1	0.086 nM	0.000176 s⁻¹	2.05e+06 M⁻¹ s⁻¹
B2	0.302 nM	0.000298 s⁻¹	984000 M⁻¹ s⁻¹
B3	0.173 nM	0.000224 s⁻¹	1.3e+06 M⁻¹ s⁻¹
B4	0.075 nM	0.00012 s⁻¹	1.6e+06 M⁻¹ s⁻¹
B5	0.085 nM	0.000147 s⁻¹	1.74e+06 M⁻¹ s⁻¹
B6	0.07 nM	0.000132 s⁻¹	1.88e+06 M⁻¹ s⁻¹
B7	0.093 nM	0.000134 s⁻¹	1.45e+06 M⁻¹ s⁻¹

Biological target: T1, human IL-23
Test: SPR Biacore T100, purified mAb captured on anti-human IgG, human IL-23 64-0.062 nM

Binder	Kd	koff	kon
B2	0.197 nM	0.000235 s⁻¹	1.19e+06 M⁻¹ s⁻¹

Biological target: T1, human IL-23
Test: SPR Biacore, purified mAb captured on anti-human IgG, human IL-23 64-0.062 nM
Description: as §1, §2

Binder	Kd	koff	kon
B1	0.061 nM	0.00014 s⁻¹	2.29e+06 M⁻¹ s⁻¹
B2	0.186 nM	0.000216 s⁻¹	1.16e+06 M⁻¹ s⁻¹
B3	0.114 nM	0.000175 s⁻¹	1.54e+06 M⁻¹ s⁻¹
B4	0.064 nM	0.000112 s⁻¹	1.74e+06 M⁻¹ s⁻¹
B5	0.065 nM	0.000132 s⁻¹	2.02e+06 M⁻¹ s⁻¹
B6	0.053 nM	0.000115 s⁻¹	2.16e+06 M⁻¹ s⁻¹
B7	0.08 nM	0.000132 s⁻¹	1.66e+06 M⁻¹ s⁻¹

Biological target: T2, cyno IL-23
Test: SPR Biacore T100, mAb from HEK supernatant captured on anti-human IgG, one concentration of cyno IL-23 (256 nM)
Description: as §1

Binder	Kd	koff	kon
B1	0.115 nM	0.000306 s⁻¹	2.66e+06 M⁻¹ s⁻¹
B2	0.365 nM	0.000484 s⁻¹	1.33e+06 M⁻¹ s⁻¹
B8	0.185 nM	0.000163 s⁻¹	883000 M⁻¹ s⁻¹
B4	0.169 nM	0.000123 s⁻¹	727000 M⁻¹ s⁻¹
B9	0.136 nM	0.000497 s⁻¹	3.65e+06 M⁻¹ s⁻¹
B6	0.092 nM	0.000176 s⁻¹	1.91e+06 M⁻¹ s⁻¹

Biological target: T1, human IL-23
Test: SPR Biacore T100, mAb from HEK supernatant captured on anti-human IgG, human IL-23 64-0.062 nM
Description: as §1

Binder	Kd	koff	kon
B1	0.066 nM	0.000159 s⁻¹	2.41e+06 M⁻¹ s⁻¹
B2	0.207 nM	0.000239 s⁻¹	1.16e+06 M⁻¹ s⁻¹
B8	0.066 nM	0.000115 s⁻¹	1.73e+06 M⁻¹ s⁻¹
B4	0.065 nM	0.000113 s⁻¹	1.73e+06 M⁻¹ s⁻¹
B9	0.078 nM	0.000205 s⁻¹	2.62e+06 M⁻¹ s⁻¹
B6	0.051 nM	0.000122 s⁻¹	2.4e+06 M⁻¹ s⁻¹

Biological target: T2, cyno IL-23
Test: SPR Biacore T100, purified mAb captured on anti-human IgG, one concentration of cyno IL-23 (256 nM)

Binder	Kd	koff	kon
B2	0.332 nM	0.000583 s⁻¹	1.76e+06 M⁻¹ s⁻¹

Biological target: T1, human IL-23
Test: cell-based or functional assay

Binder	IC50 (inhibition of IL-23 driven STAT3 phosphorylation in human activated T cell blasts)
B1	0.0685 nM
B2	0.115 nM
B4	0.0384 nM
B6	0.0473 nM
